Strand notation (5' to 3'): a small letter for the sugar, then the base; units joined by * are phosphorothioate-linked, units joined directly phosphodiester-linked; [ ] holds rarer units or linkages, { } end groups; capitals alone tell only the bases. m = 2'-O-methyl; r = 2'-OH (RNA)

The test system of data set [1] is TTR. Put plainly: TTR editing in primary human hepatocytes treated with LNP formulated Spy Cas9 mRNA (SEQ ID NO: 2) and sgRNAs (Table 16). It counts as cell-based. To be noted: LNP formulated Spy Cas9 mRNA (SEQ ID NO: 2) and sgRNA, 72 hours. Summed up: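 Primary human hepatocytes, 24 h after plating, were treated with LNPs carrying Cas9 mRNA and sgRNA (1:1 by weight), preincubated 5 min at 37° C in medium with 6% cyno serum, across an 8-point 2-fold dose range. Editing was quantified as percent reads with indels or substitutions by amplicon sequencing.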

In data set [2] the test system is TTR. Put plainly: TTR editing in primary cyno hepatocytes treated with LNP formulated Spy Cas9 mRNA (SEQ ID NO: 2) and sgRNAs (Tables 17, 18). To be noted: Table 17, LNP formulated Spy Cas9 mRNA (SEQ ID NO: 2) and sgRNA, 12.5 ng mRNA, 3.9 nM sgRNA, 72 hours. It is filed as cell-based, cynomolgus monkey. In a few lines:
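Primary cynomolgus hepatocytes, 24 h after plating, dosed with LNPs (N:P about 4.5 or 6, mRNA:gRNA 1:1 by weight) pre-incubated 5 min at 37° C. in medium with 6% cyno serum, in an 8-point 2-fold dose response. Editing = indel/substitution reads over total reads by amplicon MiSeq sequencing.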

The subject of another data set is TTR mRNA. The data set is described as follows: TTR mRNA knockdown in primary human hepatocytes by quantitative PCR (Tables 34, 35). It is filed as cell-based. The settings on record: TTR mRNA in PHH; LNP dose 300 ng mRNA cargo; gRNA:mRNA 1:2; 96 hours after treatment; biological triplicates; vs untreated control. As for the experimental part:
In one experiment, PHH were cultured and treated with LNPs comprising Cas9 mRNA (SEQ ID NO:1) and a gRNA of interest (See FIG. 29, Table 34), as described in Example 4. The LNPs were prepared using the cross-flow procedure described above and purified and concentrated using PD-10 columns and Amicon centrifugal filter units, respectively. The LNPs were formulated with an N:P ratio of 6.0 and contained Lipid A, Cholesterol, DSPC, and PEG2k-DMG in a 50:38:9:2 molar ratio, respectively. The LNPs comprised a gRNA:mRNA ratio of 1:2, and the cells were treated at a dose of 300 ng (with respect to the amount of mRNA cargo delivered).
(§1) Ninety-six (96) hours following LNP treatment (with biological triplicates for each condition), mRNA was purified from PHH cells using the Dynabeads mRNA DIRECT Kit (ThermoFisher Scientific) according to the manufacturer's protocol. Reverse Transcription (RT) was performed with Maxima reverse transcriptase (ThermoFisher Scientific) and a poly-dT primer. The resulting cDNA was purified with Ampure XP Beads (Agencourt). For Quantitative PCR, 2% of the purified cDNA was amplified with Taqman Fast Advanced Mastermix and 3 Taqman probe sets, TTR (Assay ID: Hs00174914_m1), GAPDH (Assay ID: Hs02786624_g1), and PPIB (Assay ID: Hs00168719_m1). The assays were run on the QuantStudio 7 Flex Real Time PCR System according to the manufacturer's instructions (Life Technologies). Relative expression of TTR mRNA was calculated by normalizing to the endogenous controls (GAPDH and PPIB) individually, and then averaged.
In a separate experiment, TTR mRNA knockdown was evaluated following treatment with LNPs comprising G000480, G000486, and G000502. The LNPs were formulated and PHH were cultured and treated with the LNPs, each as described in the experiment above in this Example with the exception that the cells were treated at a dose of 100 ng (with respect to the amount of mRNA cargo delivered).
as §1, with “(single treatment” for “(with biological triplicates”, “the High Capacity cDNA Reverse Transcription Kit” for “Maxima reverse transcriptase”, “according to the manufacturer's instructions.” for “and a poly-dT primer. The resulting cDNA was purified with Ampure XP Beads (Agencourt).”, “the” for “the purified”

B1: G000570: TTR sgRNA modified sequence, Human, SEQ ID No. 111; guide sequence of CR003347 (nucleic acid)
guide: mC*mA*mU*rUrGrArUrGrGrCrArGrGrArCrUrGrCrCrUrGrUrUrUrUrArGrAmGmCmUmAmGmAmAmAmUmAmGmCrArArGrUrUrArArArArUrArArGrGrCrUrArGrUrCrCrGrUrUrArUrCrAmAmCmUmUmGmAmAmAmAmAmGmUmGmGmCmAmCmCmGmAmGmUmCmGmGmUmGmCmU*mU*mU*mU
For the molecule B1, the “12.5 ng mRNA, 3.9 nM sgRNA Avg % Edit” value is 88.30% in the data set with TTR [1] and 17.30% with TTR [2]. In the data set on TTR mRNA, the “Avg % Knockdown” value came to 93.38%.

B2: G000572: TTR sgRNA modified sequence, Human, SEQ ID No. 113; guide sequence of CR003385 (nucleic acid)
guide: mC*mC*mC*rCrUrArCrUrCrCrUrArUrUrCrCrArCrCrArGrUrUrUrUrArGrAmGmCmUmAmGmAmAmAmUmAmGmCrArArGrUrUrArArArArUrArArGrGrCrUrArGrUrCrCrGrUrUrArUrCrAmAmCmUmUmGmAmAmAmAmAmGmUmGmGmCmAmCmCmGmAmGmUmCmGmGmUmGmCmU*mU*mU*mU
As for B2, the “12.5 ng mRNA, 3.9 nM sgRNA Avg % Edit” value is reported as 55.45% with TTR [1] and 30.60% in the data set with TTR [2]. Also, in the data set with TTR mRNA, the “Avg % Knockdown” value is reported as 55.92%.
